In US7666644B2, “Glyphosate-N-acetyltransferase (GAT) genes” (Verdia, Inc., priority 2004, dated 2010):

B1: YitI: most closely related sequence available in Genbank, yitI from Bacillus subtilis (protein, UniProt O06744 1-149, looked up)
Uncharacterized …: MLEVKTISVEDTYEIRHRILRPHQSIEQCKYKEDHAEGSFHLGVFYDGTLISIASFSPQSQPLLTEASAYRLRGMATLEGYRDQKAGSTLIKHAEHKLAESGVQAVWCNARHHVKGYYAKLGWKELGEPFDIPGIGNHIVMYKTLRTSR
B2: 17-15H3: evolved GAT; polypeptide SEQ ID NO:601, transgene SEQ ID NO:549 (protein)
chain: MIEVKPINAEDTYELRHRILRPNQPIEACMFESDLLRGAFHLGGYYGGKLISIASFHQAEHSELQGQKQYQLRGMATLEGYREQKAGSSLIKHAEEILRKRGADLLWCNARTSASGYYKKLGFSEQGEVFDTPPVGPHILMYKRIT
modifications: D_S00260796_17-15H3
B3: GAT4620: altered gat coding sequence encoding 25-8H7 M1MA; Ala codon inserted, first 7 codons more frequently utilized, Ser 62 and Arg 111 changed (nucleic acid)
DNA: ATGGCTATTGAGGTTAAACCTATTAACGCAGAGGATACCTATGACCTAAGGCATAGAGTCCTCAGACCAAACCAGCCGATAGAAGCGTGTATGTTTGAAAGCGATTTAACGCGTAGTGCATTTCACTTAGGCGGCTTCTACGGGGGCAAACTGATTTCCGTCGCTTCATTCCACCAGGCCGAGCACTCTGAACTTCAAGGCAAGAAACAGTACCAGCTTCGAGGTGTGGCTACCTTGGAAGGTTATCGTGAGCAGAAGGCGGGTTCCAGTCTAGTTAAACACGCTGAAGAAATTCTACGTAAGAGGGGGGCGGACATGATTTGGTGTAATGCGAGGACATCTGCCTCAGGCTACTACAGAAAGTTAGGCTTCAGCGAGCAGGGAGAGGTATTCGACACGCCGCCAGTAGGACCTCACATCCTGATGTATAAAAGGATCACATAA
modifications: Synthetic nucleic acid sequence GAT4620; CDS (1)...(444): encodes 25-8H7 M1MA (SEQ ID NO:950)
notes: Ala codon inserted, first 7 codons more frequently utilized, Ser 62 and Arg 111 changed
B4: 25-8H7: further evolved GAT enzyme, SEQ ID NO:907; gene GAT25-8H7/4618 SEQ ID NO:906 (protein)
chain: MIEVKPINAEDTYDLRHRVLRPNQPIEACMFESDLTRSAFHLGGFYGGKLISVASFHQAEHSELQGKKQYQLRGVATLEGYREQKAGSSLVKHAEEILRKRGADMIWCNARTSASGYYRKLGFSEQGEVFDTPPVGPHILMYKRIT
modifications: 25-8H7
B5: GAT4621: altered gat coding sequence encoding 25-8H7 M1MA; Ala codon inserted and more frequently utilized codons throughout (nucleic acid)
DNA: ATGGCTATTGAGGTTAAGCCTATCAACGCAGAGGATACCTATGACCTTAGGCATAGAGTGCTCAGACCAAACCAGCCTATCGAAGCCTGCATGTTTGAGTCTGACCTTACTAGGAGTGCATTTCACCTTGGTGGATTCTACGGAGGTAAACTGATTTCCGTGGCTTCATTCCACCAAGCTGAGCACTCTGAACTTCAAGGTAAGAAGCAGTACCAGCTTAGAGGTGTGGCTACCTTGGAAGGTTATAGAGAGCAGAAGGCTGGTTCCAGTCTCGTGAAACACGCTGAAGAGATTCTCAGAAAGAGAGGTGCTGACATGATCTGGTGTAATGCCAGGACATCTGCTTCAGGATACTACAGGAAGTTGGGATTCAGTGAGCAAGGAGAGGTGTTCGATACTCCTCCAGTTGGACCTCACATCCTGATGTATAAGAGGATCACATAA
modifications: Synthetic nucleic acid sequence GAT4621; CDS (1)...(444): encodes 25-8H7 M1MA (SEQ ID NO:950)
notes: Ala codon inserted and more frequently utilized codons throughout

Key:
[1] = test system: Nicotiana tabacum L. Xanthi leaf explants; experiment: Tobacco shoot regeneration with glyphosate selection after Agrobacterium-mediated transformation; format: cell-based; conditions: explants lacking a GAT gene
Text: Agrobacterium-mediated transformation of plant cells occurs at low efficiencies. To allow propagation of transformed cells while inhibiting proliferation of non-transformed cells, a selectable marker is needed. Antibiotic markers for kanamycin and hygromycin and the herbicide modifying gene bar, which detoxifies the herbicidal compound phosphinothricin, are examples of selectable markers used in plants (Methods in Molecular Biology, 1995, 49:9-18). […] An evolved GAT gene (0—5B8), SEQ ID NO:190, was cloned between a plant promoter (enhanced strawberry vein banded virus) and a […] terminator and introduced into the T-DNA region of the binary vector pMAXY3793 suitable for transformation of plant cells via Agrobacterium tumefaciens EHA105 as shown in FIG. 12. A screenable GUS marker was present in the T-DNA to allow confirmation of transformation. Transgenic tobacco shoots were generated using glyphosate as the only selecting agent.
Axillary buds of Nicotiana tabacum L. Xanthi were subcultured on half-strength MS medium with sucrose (1.5%) and Gelrite (0.3%) under 16-h light (35-42 μEinsteins m^−2 s^−1, cool white fluorescent lamps) at 24° C. every 2-3 weeks. Young leaves were excised from plants after 2-3 weeks subculture and were cut into 3×3 mm segments. A. tumefaciens EHA 105 was inoculated into LB medium and grown overnight to a density of A600=1.0. […]

[2] = GAT activity of native YitI; format: biochemical
[3] = Transfer of the propionyl group from propionyl CoA to glyphosate, DTNB detection; format: biochemical; conditions: 1 mM propionyl CoA, 5 mM glyphosate or no glyphosate, 30 minutes
Experimental: The ability of GAT variants (B6 (SEQ ID NO:7), 0—6D10 (SEQ ID NO:448), 17-15H3 (SEQ ID NO:601), and 20-8H12c (SEQ ID NO:817)) to transfer the propionyl group from propionyl CoA to glyphosate was tested in reaction mixtures containing 5 mM glyphosate or no glyphosate. Propionyl CoA was present at 1 mM. After 30 minutes the reactions were terminated and the presence of free […] was determined by the addition of DTNB.

[4] = test system: maize plants; experiment: Effect of temperature variation on glyphosate tolerance of T1 maize expressing GAT transgenes; format: in vivo; conditions: cool/cold, warm and hot conditions, 0×, 4×, 6×, 8× glyphosate at V2, scored 5 and 14 days
Experimental: Maize plants expressing GAT variant transgenes 10—4F2 (SEQ ID NO:203), 17-15H3 (SEQ ID NO:549), and 18-28D9b (SEQ ID NO:814) were produced using the methods described in Example 13. The effect of temperature on glyphosate tolerance was evaluated in T1 plants. The T1 plants were grown in cool/cold (day 14° C., night 8° C.), warm (day 28° C., night 20° C.), and hot (day 37° C., night 20° C.) conditions. T1 plants were sprayed at V2 with four different glyphosate spray treatments (0×, 4×, 6×, and 8×). Plants were scored at 5 and 14 days after treatment for leaf discoloration and plant height comparisons as described in Example 13.

[5] = format: physicochemical; conditions: buffer, pH 7.2
Experimental: The half lives of several GAT polypeptides were also measured at 37.5° C. according to the following procedure. GAT polypeptides 401 (SEQ ID NO: 6), 17-15H3 (SEQ ID NO: 601), 20-8H12 (SEQ ID NO: 739), 22-13B12 (SEQ ID NO: 781), 22-15B4 (SEQ ID NO: 946) and 22-18C5 (SEQ ID NO: 795) were incubated in a matrix of 25 mM Hepes, pH 7.2, 10 mM KCl and 10% methanol (“HKM”). At various timepoints, aliquots were withdrawn and assayed in triplicate at 22° C. using the continuous spectrophotometric assay described in Example 7 using saturating concentrations of glyphosate (20 mM for 401, 5 mM for the rest) and AcCoA (167 uM). The standard error at each time point averaged about 2.9%. GAT activity was plotted as a function of incubation time and the data was fitted to a curve for exponential decay (y=e^−x), where y is enzyme activity and x is time in hours, from which half life was calculated.

[6] = GAT activity with substrate glyphosate (amino acid substrate study, DTNB); format: biochemical; conditions: Substrate Glyph, relative to 401
Experimental: (§1) GAT activity of several GAT polypeptides of the present invention was evaluated with respect to a number of amino acid substrates. The GAT polypeptide, AcCoA and amino substrate were incubated in 25 mM Hepes, pH 6.8, 10% ethylene glycol in the wells of a 96-well polystyrene plate. After 30 minutes, the reactions were stopped by the addition of 30 μl of 10 mM 5,5′-dithiobis-2-nitrobenzoate (DTNB) in 500 mM Tris, pH 7.5. After 2 minutes, absorbance was read at 412 nm in a Spectramax Plus plate reader (Molecular Devices, Sunnyvale, Calif.).

[7] = GAT activity with substrate L-aspartate (DTNB); format: biochemical; conditions: for kcat/KM % of glyph: Substrate Aspartate
Experimental: as §1

[8] = GAT activity with substrate L-serine (DTNB); format: biochemical; conditions: for kcat/KM % of glyph: Substrate Serine
Experimental: as §1

[9] = test system: Nicotiana benthamiana leaves; experiment: Transient expression by Agrobacterium infiltration, GAT protein by SDS-PAGE and blot with antiGAT polyclonal antibody; format: in vivo; conditions: infiltrated leaves, 3 days, as a percent of total protein
Experimental: A binary vector with a dMMV-gat-UBQ3 cassette in the T-DNA was transformed into competent Agrobacterium tumefaciens strain C58 cells by electroporation (McCormac et al., Mol. Biotechnol. 9:155-159, 1998). After growth on LB+40 ug/ml kanamycin plates for 2 days at 28° C., colonies were inoculated into LB+40 ug/ml kanamycin liquid medium and shaken overnight at 28° C. The Agrobacterium cells were collected by centrifugation at 4000 g for 10 minutes and then resuspended in a volume of 10 mM MgSO4 equivalent to the initial culture volume. This bacterial suspension was forced or “infiltrated” into the intercellular spaces of Nicotiana benthamiana leaves using a 1 ml plastic syringe (with no needle). By infiltrating 200-300 μl of bacterial suspension into each spot (typically 3-4 cm^2 in infiltrated area), 4 or more spots could be arranged on a single leaf still attached to the plant. In some cases the gat-containing Agrobacterium strain was diluted 5:1 or 10:1 with a second Agrobacterium strain lacking gat prior to infiltration. This dilution step has the effect of reducing the overall expression of the gat gene in the plant cells, thereby preventing saturation and allowing easier visualization of expression differences between variants and constructs. After 3 days the leaf material was ground, extracted in aqueous buffer, and centrifuged. […]

| Molecule | kcat/KM Fold imp. [6] | increase in activity with aspartate compared to native GAT polypeptide [7] | kcat/KM % of glyph [7] | activity with respect to serine and phosphoserine compared to native GAT polypeptide [8] | kcat/KM % of glyph [8] | level of GAT protein accumulated compared to the unmodified GAT25-8H7/4618 gene [9] | further results |
| --- | --- | --- | --- | --- | --- | --- | --- |
| O=C(O)CNCP(=O)(O)O [Glyphosate, N-phosphonomethylglycine] | – | – | – | – | – | – | Glyphosate concentrations that completely inhibited any shoot formation [1]: greater than 20 uM |
| B1 | – | – | – | – | – | – | GAT activity [2]: detectable GAT activity |
| B2 | 1086 fold | 40 fold | 3.24% | loss of activity | 0.0882% | – | glyphosate-dependent hydrolysis of propionyl CoA [3]: showed glyphosate-dependent hydrolysis of propionyl CoA; effect of growth temperature on glyphosate tolerance [4]: not adversely effected; Half-life [5]: 45 h |
| B3 | – | – | – | – | – | comparable | – |
| B4 | 7031 fold | 40 fold | 0.520% | loss of activity | 0.00855% | – | – |
| B5 | – | – | – | – | – | about two-fold greater | – |
